B1: Regulator of G-protein signaling 2 (Homo sapiens), P41220-1 (parent)
chain: MQSAMFLAVQHDCRPMDKSAGSGHKSEEKREKMKRTLLKDWKTRLSYFLQNSSTPGKPKTGKKSKQQAFIKPSPEEAQLWSEAFDELLASKYGLAAFRAFLKSEFCEENIEFWLACEDFKKTKSPQKLSSKARKIYTDFIEKEAPKEINIDFQTKTLIAQNIQEATSGCFTTAQKRVYSLMENNSYPRFLESEFYQDLCKKPQITTEPHAT
partner: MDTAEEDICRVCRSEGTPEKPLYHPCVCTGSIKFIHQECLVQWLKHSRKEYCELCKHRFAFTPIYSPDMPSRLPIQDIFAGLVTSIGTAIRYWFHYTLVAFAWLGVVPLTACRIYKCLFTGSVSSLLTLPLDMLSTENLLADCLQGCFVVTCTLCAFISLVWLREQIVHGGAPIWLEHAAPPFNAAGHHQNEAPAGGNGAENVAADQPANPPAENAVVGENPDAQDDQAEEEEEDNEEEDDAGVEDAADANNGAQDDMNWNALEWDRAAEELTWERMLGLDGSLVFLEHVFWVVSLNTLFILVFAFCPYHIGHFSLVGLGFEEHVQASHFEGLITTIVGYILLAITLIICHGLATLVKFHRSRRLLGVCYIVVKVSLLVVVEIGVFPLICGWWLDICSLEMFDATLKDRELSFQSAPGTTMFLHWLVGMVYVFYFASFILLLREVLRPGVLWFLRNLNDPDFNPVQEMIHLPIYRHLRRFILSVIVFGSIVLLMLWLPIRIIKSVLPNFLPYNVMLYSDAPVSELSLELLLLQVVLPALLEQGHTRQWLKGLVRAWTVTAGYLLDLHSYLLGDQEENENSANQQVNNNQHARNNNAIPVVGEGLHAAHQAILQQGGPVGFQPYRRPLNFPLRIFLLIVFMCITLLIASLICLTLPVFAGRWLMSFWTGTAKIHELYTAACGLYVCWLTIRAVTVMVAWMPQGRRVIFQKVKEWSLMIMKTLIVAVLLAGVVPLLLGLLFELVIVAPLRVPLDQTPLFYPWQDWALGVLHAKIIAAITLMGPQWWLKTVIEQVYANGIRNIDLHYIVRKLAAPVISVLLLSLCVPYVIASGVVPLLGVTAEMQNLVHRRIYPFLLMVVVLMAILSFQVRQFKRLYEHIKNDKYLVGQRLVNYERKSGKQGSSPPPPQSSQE

Variants of: B1
Details: with marh6_human MARCHF6, O60337
PQSAMFLAVQHDCRPMDKSAGSGHKSEEKREKMKRTLLKDWKTRLSYFLQNSSTPGKPKTGKKSKQQAFIKPSPEEAQLWSEAFDELLASKYGLAAFRAFLKSEFCEENIEFWLACEDFKKTKSPQKLSSKARKIYTDFIEKEAPKEINIDFQTKTLIAQNIQEATSGCFTTAQKRVYSLMENNSYPRFLESEFYQDLCKKPQITTEPHAT [M1P] was tested, and the “effect of a mutation on the interaction” value was “disrupting interaction strength”.

From IntAct's records for PubMed 25766235
